The series concerns the molecule itself. Kind of series: SEC; Superdex 75, 200 μl of 20-40 μM protein, 150 mM NaCl, 10 mM sodium phosphate, 0.03% NaN3, pH 7.4, 0.5 ml/min. On the technique in general: Size exclusion chromatography separates by hydrodynamic size, large species first.

The stoichiometry N is the number of molecules, sites or subunits per partner or assembly.

B1: EK2 de novo polypeptide (AEEAKKA repeats) (other)
chain: SAEEAKKAAEEAKKAAEEAKKAAEEAKKAAEEAKKAAEEAKKAAEEAKKAAEEAKKAAEEAKKAAEEAKKAAEEAKKAAEEAKKAAEEAKKAAEEAKW
With B1, the “stoichiometry N” value is around 2.
